Here are results for two molecules from publication PMC3159478 (Nucleic Acids Research, 2011).

The target of one data set is T1, SsoMCM R440A (Sulfolobus solfataricus, UniProt Q9UXG1 1-686, R440A).
T1 sequence: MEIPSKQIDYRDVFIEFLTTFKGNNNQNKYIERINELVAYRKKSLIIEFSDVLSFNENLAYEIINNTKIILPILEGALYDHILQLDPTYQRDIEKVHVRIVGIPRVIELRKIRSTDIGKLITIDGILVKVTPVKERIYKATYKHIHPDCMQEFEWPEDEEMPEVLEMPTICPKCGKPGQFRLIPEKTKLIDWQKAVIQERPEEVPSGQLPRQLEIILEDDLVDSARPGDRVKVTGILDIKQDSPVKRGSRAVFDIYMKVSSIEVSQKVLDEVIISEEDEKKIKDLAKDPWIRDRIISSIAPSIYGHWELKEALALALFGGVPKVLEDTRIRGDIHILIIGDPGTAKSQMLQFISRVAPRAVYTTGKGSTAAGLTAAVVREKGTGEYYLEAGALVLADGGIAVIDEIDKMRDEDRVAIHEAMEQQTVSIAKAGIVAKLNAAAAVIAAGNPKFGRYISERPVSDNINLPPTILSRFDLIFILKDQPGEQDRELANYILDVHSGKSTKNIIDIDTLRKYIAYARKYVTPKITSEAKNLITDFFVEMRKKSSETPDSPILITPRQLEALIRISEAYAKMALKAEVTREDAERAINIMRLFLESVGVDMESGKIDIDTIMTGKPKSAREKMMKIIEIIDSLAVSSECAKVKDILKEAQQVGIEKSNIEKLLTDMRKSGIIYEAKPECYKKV
The data set can be described thus: fluorescence anisotropy.

Another data set addresses T2, SsoMCM WT (Sulfolobus solfataricus, UniProt Q9UXG1 1-686).
T2 sequence: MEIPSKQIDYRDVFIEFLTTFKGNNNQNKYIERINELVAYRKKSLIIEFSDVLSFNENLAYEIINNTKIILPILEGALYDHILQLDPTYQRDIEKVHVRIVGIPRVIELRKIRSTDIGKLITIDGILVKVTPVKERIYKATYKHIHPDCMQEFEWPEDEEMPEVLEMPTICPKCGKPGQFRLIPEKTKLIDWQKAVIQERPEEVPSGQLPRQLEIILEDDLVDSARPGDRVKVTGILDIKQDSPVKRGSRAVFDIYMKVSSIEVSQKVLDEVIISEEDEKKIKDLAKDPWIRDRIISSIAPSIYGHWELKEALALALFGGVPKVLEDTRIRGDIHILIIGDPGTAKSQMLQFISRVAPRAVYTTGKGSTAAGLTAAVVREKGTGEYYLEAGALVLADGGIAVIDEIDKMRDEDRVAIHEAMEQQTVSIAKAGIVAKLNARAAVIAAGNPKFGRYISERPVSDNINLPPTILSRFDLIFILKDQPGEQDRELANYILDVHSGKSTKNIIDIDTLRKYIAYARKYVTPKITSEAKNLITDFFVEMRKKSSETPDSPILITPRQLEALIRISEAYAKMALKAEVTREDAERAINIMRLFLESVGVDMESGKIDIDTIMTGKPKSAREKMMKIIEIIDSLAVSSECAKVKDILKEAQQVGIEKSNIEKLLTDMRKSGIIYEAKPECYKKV
Description: fluorescence anisotropy.

The target of the next data set is T3, SsoMCM K323A/R440A (Sulfolobus solfataricus, UniProt Q9UXG1 1-686, K323A;R440A).
T3 sequence: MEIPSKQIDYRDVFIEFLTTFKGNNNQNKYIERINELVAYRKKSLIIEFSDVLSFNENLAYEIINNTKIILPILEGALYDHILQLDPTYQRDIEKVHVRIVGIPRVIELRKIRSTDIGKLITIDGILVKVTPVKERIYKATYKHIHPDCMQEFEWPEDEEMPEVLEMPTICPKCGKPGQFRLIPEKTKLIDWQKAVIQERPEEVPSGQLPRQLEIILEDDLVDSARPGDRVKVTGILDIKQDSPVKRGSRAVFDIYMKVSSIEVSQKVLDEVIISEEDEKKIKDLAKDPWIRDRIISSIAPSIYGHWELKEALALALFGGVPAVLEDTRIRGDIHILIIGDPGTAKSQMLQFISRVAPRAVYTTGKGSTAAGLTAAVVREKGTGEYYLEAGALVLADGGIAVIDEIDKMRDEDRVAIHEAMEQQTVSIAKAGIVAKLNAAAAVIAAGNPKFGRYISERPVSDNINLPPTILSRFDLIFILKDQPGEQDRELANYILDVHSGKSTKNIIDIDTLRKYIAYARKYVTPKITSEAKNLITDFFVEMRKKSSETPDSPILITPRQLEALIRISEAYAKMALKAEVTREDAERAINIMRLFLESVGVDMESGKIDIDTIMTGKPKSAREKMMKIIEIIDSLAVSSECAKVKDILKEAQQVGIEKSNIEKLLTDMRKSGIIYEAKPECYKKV
Description: fluorescence anisotropy.

The target of the next data set is T4, SsoMCM K323A (Sulfolobus solfataricus, UniProt Q9UXG1 1-686, K323A).
T4 sequence: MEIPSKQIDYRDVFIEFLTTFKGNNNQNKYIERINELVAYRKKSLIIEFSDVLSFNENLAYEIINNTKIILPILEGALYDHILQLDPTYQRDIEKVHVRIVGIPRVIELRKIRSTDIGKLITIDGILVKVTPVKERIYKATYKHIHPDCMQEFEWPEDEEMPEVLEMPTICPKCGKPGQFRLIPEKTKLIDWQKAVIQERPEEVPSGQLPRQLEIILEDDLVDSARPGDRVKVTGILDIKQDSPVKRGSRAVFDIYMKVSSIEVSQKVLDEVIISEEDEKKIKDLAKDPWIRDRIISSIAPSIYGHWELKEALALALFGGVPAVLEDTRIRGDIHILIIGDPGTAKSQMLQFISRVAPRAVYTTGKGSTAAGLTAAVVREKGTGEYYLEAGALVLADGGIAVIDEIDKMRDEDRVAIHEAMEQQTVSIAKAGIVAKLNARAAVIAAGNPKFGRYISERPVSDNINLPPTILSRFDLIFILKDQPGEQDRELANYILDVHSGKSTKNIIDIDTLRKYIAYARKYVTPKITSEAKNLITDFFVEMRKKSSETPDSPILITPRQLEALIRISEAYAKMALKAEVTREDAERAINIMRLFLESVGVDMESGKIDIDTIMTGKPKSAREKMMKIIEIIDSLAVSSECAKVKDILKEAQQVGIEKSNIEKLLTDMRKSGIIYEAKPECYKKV
The data set can be described thus: fluorescence anisotropy.

For data set [1], the target named is Q9UXG1. The data set can be described thus: FRET or BRET.
In data set [2] the target is Q9UXG1. Description: FRET or BRET. This is another data set of the same source.
In data set [3] the target is Q9UXG1. Description: FRET or BRET. The source holds these as a separate data set.
In data set [4] the target is Q9UXG1. Description: FRET or BRET. The source holds these as a separate data set.
Data set [5] has as its target Q9UXG1. Description: FRET or BRET. This is another data set of the same source.

Read-outs that look alike come from different tables or passages of the source.

B1: fork 5'-tail-50 nt / 3'-tail-30 nt (mixed)
DNA 1: CACCTCTCCCTACGCTTCCCACCCACCCCGACCGGCATCTGCTATGGTACGCTGAGCGAGAGTAGC
DNA 2: CGATGAGAGCCGATGAGAGCCGATGAGAGCGAGTCGCATGGTATCGTCTAGCCGGTCGGGGTGGGTGGGAAGCGTAGGGAGAGGTG
For B1, the dissociation constant (Kd) came to 92 ± 13 nM in the data set with SsoMCM R440A, 75 ± 13 nM with SsoMCM WT, 90 ± 9 nM with SsoMCM K323A/R440A and 93 ± 10 nM with SsoMCM K323A.

B2: Wild-type SsoMCM fluorescently labelled at the N-terminus with Alexa 488 (donor) or Alexa 555 (acceptor) (protein)
chain: MEIPSKQIDYRDVFIEFLTTFKGNNNQNKYIERINELVAYRKKSLIIEFSDVLSFNENLAYEIINNTKIILPILEGALYDHILQLDPTYQRDIEKVHVRIVGIPRVIELRKIRSTDIGKLITIDGILVKVTPVKERIYKATYKHIHPDCMQEFEWPEDEEMPEVLEMPTICPKCGKPGQFRLIPEKTKLIDWQKAVIQERPEEVPSGQLPRQLEIILEDDLVDSARPGDRVKVTGILDIKQDSPVKRGSRAVFDIYMKVSSIEVSQKVLDEVIISEEDEKKIKDLAKDPWIRDRIISSIAPSIYGHWELKEALALALFGGVPKVLEDTRIRGDIHILIIGDPGTAKSQMLQFISRVAPRAVYTTGKGSTAAGLTAAVVREKGTGEYYLEAGALVLADGGIAVIDEIDKMRDEDRVAIHEAMEQQTVSIAKAGIVAKLNARAAVIAAGNPKFGRYISERPVSDNINLPPTILSRFDLIFILKDQPGEQDRELANYILDVHSGKSTKNIIDIDTLRKYIAYARKYVTPKITSEAKNLITDFFVEMRKKSSETPDSPILITPRQLEALIRISEAYAKMALKAEVTREDAERAINIMRLFLESVGVDMESGKIDIDTIMTGKPKSAREKMMKIIEIIDSLAVSSECAKVKDILKEAQQVGIEKSNIEKLLTDMRKSGIIYEAKPECYKKV
In the case of B2, the kobs1 of MCM subunit exchange (first exponential, direct exchange of subunits) was found to be 0.192 s⁻¹ with Q9UXG1 [1]; 0.0474 s⁻¹ with Q9UXG1 [2]; 0.0556 s⁻¹ in the data set with Q9UXG1 [3]; 0.196 s⁻¹ with Q9UXG1 [4]; 0.125 ± 0.005 min⁻¹ with Q9UXG1 [5].
